# Results as given in the nanobody polyreactivity screen of Harvey et al. (2022).
# Test: yeast display, Sf9 membrane polyspecificity reagent, FACS + sequencing; frameworks hold sequencing errors
# Summary of the method: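 Sorting gates, low and high (top ~1%), were placed on anti-HA fluorescence to track expression and on streptavidin fluorescence to track reagent binding. A clone's polyreactivity label is taken from the gate it came out of. The reagent was 10% biotinylated, detergent-solubilized Sf9 membrane, applied for 1 hour at 4 °C to galactose-induced yeast display cells.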
row,Sequence,polyreactivity (PSR sort gate)
1,QVQLVESGGGLVQAGGSLRLSCAASGRTFSDNAMGWYRQAPGKERELVAASSRSGGRTYYADSVKGRFTISRDNAKNTVYLQMNSLKPEDTAVYYCAAAPSVSGTRLYEYWGQGTQVTVSS,high polyreactivity
2,QVQLVESGGGLVQAGGSLRLSCAASGRTFSDYAMGWYRQAPAKERELVAAISKSGGRTYYADSVKGRFTISRDNAKNTVYLQMNSLKPEDTAVYYCAADPLTELAFYSWGQGTQVTVSS,high polyreactivity
3,QVQLVESGGGLVQAGGSLRLSCAASGRTFSGNAMGWYRQAPGKERELVASISTSTDGTYYADSVKGRFTISRDNAKNTVYLQMNSLKAEDTAVYYCTTTTYHWYYYRWEIFDYRGQGTQVTVSS,low polyreactivity
4,QVQLVESGGGLVQAGGSLRLSCAASGRTFSGNTMGWYRQAPGKERELVAVINSGTRTYYADSVKGRFTISRDNAKNTVYLHMNSLKPEDTAVYYCATRSKSPSTKYGYWGQGTQVTVSS,high polyreactivity
5,QVQLVESGGGLVQAGGSLRLSCAASGRTFSGYAMGWYRQAPGKERELVAAIRWSGGSTYYADSVKGRFTISRDNAKNTVYLQMNSLKPEDTAVYYCATRDYYYRYGYWGQGTQVTVSS,high polyreactivity
6,QVQLVESGGGLVQAGGSLRLSCAASGRTFSGYAMGWYRQAPGKERELVAGITWNGGRTYYADSVKGRFTISRDNAKNTVSLQMNSLKPEDTAVYYCNKLGAVYPKYGYWGQGTQVTVSS,high polyreactivity
7,QVQLVESGGGLVQAGGSLRLSCAASGRTFSGYAMGWYRQAPGKERELVASITYSGGSTYYADSVKGRFTISRDNAKNTVYLQMNSLKPEDTAVYYCNARSSGKGRSNAYYKGHGYWGQGTQVTVSS,high polyreactivity
8,QVQLVESGGGLVQAGGSLRLSCAASGRTFSGYAMVWYRQAPGKERELVAAISSGGGSTYYADSVKGRFTISRDNAKNTVYLQMNSLKPEDTAVYYCAADGYPGDYDYWGQGTQVTVSS,low polyreactivity
9,QVQLVESGGGLVQAGGSLRLSCAASGRTFSHYAMGSYRQAPGKEREFVADITRSGGSTYYADSVKGRFTISRDNAKNTVYLQMNSLKPEDTAVYYCNAESYFEIYDYWGQGTQVTVSS,high polyreactivity
10,QVQLVESGGGLVQAGGSLRLSCAASGRTFSHYAMGWYRQAPGKERELVAAINTRTGTTYYADSVKGRFTISRDNAKNTVYLQMNSLKPEDTAVYYCNAVPYYSYQGWILVGDYDYWGQGTQVTVSS,low polyreactivity
11,QVQLVESGGGLVQAGGSLRLSCAASGRTFSKYAMAWYRQAPGKERELVAAISSSGGSTYYADSVKGRFTISRDNAKNTVYLQMNSLKPEDTAVYYCATRVYPRYWFTTRYRYDYWGQGTQVTVSS,low polyreactivity
12,QVQLVESGGGLVQAGGSLRLSCAASGRTFSKYAMGWYRQAPGKERELVAAISSGGSTNYADSVKGRFTISRDNAKNTVYLQMISLKPEDTAVYYFARTTNWRHSYAYYYLHGHDYWGQGTQVTVSS,high polyreactivity
13,QVQLVESGGGLVQAGGSLRLSCAASGRTFSKYAMGWYRQAPGKERELVAAITRSGSSTYYADSVKGRFTISRDNAKNTVYLQMNCLKPEDTAVYYCAADRYLRSSGSAPDYGYWGQGTQVTVSS,low polyreactivity
14,QVQLVESGGGLVQAGGSLRLSCAASGRTFSKYAMGWYRQAPGKERELVAAITSGGGTYYADSVKGRFTISRDNAKNTVYLQMNSLKPEDTAVYYCAVSVTTVSTYDYWGQGTQVTVSS,low polyreactivity
15,QVQLVESGGGLVQAGGSLRLSCAASGRTFSLNAMGWYRQAPGKERELVAAINRGGTTYYADSVKGRFTISRDNAKNTVYLQMNSLKPEDTAVYDCAARVWGRWAGSYAWWHGYNSWGQGTQVSVSS,high polyreactivity
16,QVQLVESGGGLVQAGGSLRLSCAASGRTFSLYAMGRYRQAPGKERELVAGISSSGGSTYYADSVKGRFTISRDNAKNTVYLQMNSLKQEDTAFYYCAAYRNTVIRNSDYWGQGTQVTVSS,high polyreactivity

row,Sequence,polyreactivity (PSR sort gate)
1,QVQLVESGGGLVQAGGSLRLSCAASGRTFSLYAMGWSRPAPGKERELVAAITRRGGSTYYADSVKGRFTMSRDNAKNTVYLQMNSLKPEDTAVYYCAADSGYPWELDYWGQGTEVTVSS,low polyreactivity
2,QVQLVESGGGLVQAGGSLRLSCAASGRTFSPNTMGWYRQAPGKEREFVAAITASGDSTYYADSVKGRFTISRDNAKNTVYLQMNSLKPEDTAVYYCDTDSNWYWGFNYWGQGTKVTVSS,low polyreactivity
3,QVQLVESGGGLVQAGGSLRLSCAASGRTFSPYMGWYRQAPGKEGELVAAISKSGGRTYYADSVKGRFTISRDNAKNTVYLQMNSLKPEDTAVYYCATTGNNYYYALYGYWGQGTQVTVSS,low polyreactivity
4,QVQLVESGGGLVQAGGSLRLSCAASGRTFSQYDMGWYRQAPGKERELVAAISWSGGRTYYADSVKGRFTISRDNAKNTVYLQMNSLKPEDTAVYYCAAAYSWIRSPYNDPNRGYDYWGQGTQVTVSS,low polyreactivity
5,QVQLVESGGGLVQAGGSLRLSCAASGRTFSRKAMRWYRQAPGKERELVASISRSGGSTYYADSVKGRFTISRDIAKNTVYLQMNSLKPEDTAVYYCAASYWHRRYDYWGQGTQVTVSS,high polyreactivity
6,QVQLVESGGGLVQAGGSLRLSCAASGRTFSRNAMGWYRQAPGKERELVAAITSRGGTTYYADSVKGRFTISRDNAKNTVYLQMNSLKPEDTAVYYCNAAPRARSKVSYDYWGQGTQVTVSS,high polyreactivity
7,QVQLVESGGGLVQAGGSLRLSCAASGRTFSRNAMGWYRQAPGKERELVAGISWRGTSTYYADSVKGRFTISRDNAKNTVYLQMNSLKPEYTAVYYCNRVYEYWSEYDYWGQGTQVTVSS,high polyreactivity
8,QVQLVESGGGLVQAGGSLRLSCAASGRTFSRNAMGWYRQAPGKERELVATITSDGSTNYADSVKGRFTISRDNAKNTVYLQMNSLKPEDTSVYYCAADEASSRGYYDYDYWGQGTQVTVSS,low polyreactivity
9,QVQLVESGGGLVQAGGSLRLSCAASGRTFSRYAMGWYRQAPGKERELVAAISYSGGRTYYADSVKGRFTISRDNAKNTVYLQMNSLKPEDTAVYYCAASWPGHTVDYDYWGQGTQVTVSS,high polyreactivity
10,QVQLVESGGGLVQAGGSLRLSCAASGRTFSRYAMGWYRQAPWKERELVAAITSRGGNTYYADSVKGRFTISRDNAKNTVYLQMNSLIPEDTAVYYCNKVVRRGGGKNPDYDYWGQGTQVTVSS,high polyreactivity
11,QVQLVESGGGLVQAGGSLRLSCAASGRTFSSNAMGWYRPAPGKEREMVAAITRRSGSTYYADSVKGRFTISRDNAKNTVYLQMNSLKPEDTAVYYCNADIDSYREMDYWGQGTQVTVSS,low polyreactivity
12,QVQLVESGGGLVQAGGSLRLSCAASGRTFSSNTMGWYRQAPGKERELVAAISSTDSTYYADSVKGRFTISRDNAKNTVYLQMNSLKPEDTAVYYCNKVVGFRSYFGGYGYWGQGTQVTVSS,high polyreactivity
13,QVQLVESGGGLVQAGGSLRLSCAASGRTFSSYAMGWYRQAPGKERELVAAISSGGSTYYADSVKGRFTISRDNAKNTVYLQMNSLKPEDTAVYYCNRRFYYKIGRGIRYFWGQVTQVTVSS,high polyreactivity
14,QVQLVESGGGLVQAGGSLRLSCAASGRTFSSYVMGWYRQAPGKERELVASISRRGGSTYYADSVKGRFTISRDNAKNTVYLQMNSLKPEDTAVYYCNADLRGYGRGTDQYTFDYWGQGTQVTVSS,high polyreactivity
15,QVQLVESGGGLVQAGGSLRLSCAASGRTFSTYAMGWYRQAPGKERELVAAITTSGGNTYYADSVKGRFTISRDNAKNTVYLQMNSLKPEDTAVYYCNADYFPTYDYWGQGTQVTVSS,low polyreactivity
